The target in this test is Chemokine receptor four (CXCR4) (human (endogenous in JJ)) (UniProt P61073).
UniProt P61073, sequence (P61073 whole entry): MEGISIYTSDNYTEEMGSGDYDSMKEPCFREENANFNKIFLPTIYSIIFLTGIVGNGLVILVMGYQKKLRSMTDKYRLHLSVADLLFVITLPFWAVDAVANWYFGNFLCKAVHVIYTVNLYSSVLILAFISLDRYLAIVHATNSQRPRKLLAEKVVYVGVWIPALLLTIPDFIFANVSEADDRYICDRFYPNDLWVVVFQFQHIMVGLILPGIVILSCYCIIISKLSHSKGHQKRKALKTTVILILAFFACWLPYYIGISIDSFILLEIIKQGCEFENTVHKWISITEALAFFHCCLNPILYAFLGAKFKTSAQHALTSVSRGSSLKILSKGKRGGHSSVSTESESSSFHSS

Take “human recombinant SDF-1 (stromal cell derived factor one) (from UniProt P48061 22-93) (ligand)”: the MMP1 mRNA (qRT-PCR, fold) in JJ cells in hypoxia with SDF1 10 ng/ml, against 9 fold by hypoxia alone; the SDF1 mediated increase was blocked by the CXCR4 inhibitor AMD3100 0.1 μM stood at 23 fold.

These data come from paper PMC2825244.
